Results from patent publication US20170336407A1.

How the values were obtained:
Assay in all cases: cell-based or functional assay
[1] = target: T1, Botrytis cinerea fungal pheromone GPCR (Botrytis cinerea)
T1 sequence: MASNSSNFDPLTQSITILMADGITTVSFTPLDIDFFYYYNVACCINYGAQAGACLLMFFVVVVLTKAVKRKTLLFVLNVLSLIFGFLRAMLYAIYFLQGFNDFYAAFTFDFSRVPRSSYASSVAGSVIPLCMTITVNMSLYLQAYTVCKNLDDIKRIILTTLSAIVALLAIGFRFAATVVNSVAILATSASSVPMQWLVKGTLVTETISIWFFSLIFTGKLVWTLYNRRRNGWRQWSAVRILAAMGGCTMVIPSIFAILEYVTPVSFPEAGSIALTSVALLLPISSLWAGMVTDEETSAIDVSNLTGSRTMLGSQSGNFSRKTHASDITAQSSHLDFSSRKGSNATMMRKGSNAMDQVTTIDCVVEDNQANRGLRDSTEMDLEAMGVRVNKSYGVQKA

[2] = target: T2, Candida albicans fungal pheromone GPCR (Candida albicans)
T2 sequence: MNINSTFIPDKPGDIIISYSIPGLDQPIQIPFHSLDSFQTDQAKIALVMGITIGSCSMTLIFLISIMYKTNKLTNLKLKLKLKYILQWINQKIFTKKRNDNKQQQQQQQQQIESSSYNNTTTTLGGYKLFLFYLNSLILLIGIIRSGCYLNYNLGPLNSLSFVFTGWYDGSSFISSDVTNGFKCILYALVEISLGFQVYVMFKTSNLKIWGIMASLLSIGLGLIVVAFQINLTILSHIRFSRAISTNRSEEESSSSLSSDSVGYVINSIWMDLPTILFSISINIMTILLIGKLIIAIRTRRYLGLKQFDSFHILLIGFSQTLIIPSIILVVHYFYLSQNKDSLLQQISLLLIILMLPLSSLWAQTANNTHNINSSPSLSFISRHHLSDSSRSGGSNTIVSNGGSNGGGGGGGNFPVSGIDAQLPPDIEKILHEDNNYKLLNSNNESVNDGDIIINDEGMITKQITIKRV

[3] = target: T3, Candida glabrata fungal pheromone GPCR (Candida glabrata)
T3 sequence: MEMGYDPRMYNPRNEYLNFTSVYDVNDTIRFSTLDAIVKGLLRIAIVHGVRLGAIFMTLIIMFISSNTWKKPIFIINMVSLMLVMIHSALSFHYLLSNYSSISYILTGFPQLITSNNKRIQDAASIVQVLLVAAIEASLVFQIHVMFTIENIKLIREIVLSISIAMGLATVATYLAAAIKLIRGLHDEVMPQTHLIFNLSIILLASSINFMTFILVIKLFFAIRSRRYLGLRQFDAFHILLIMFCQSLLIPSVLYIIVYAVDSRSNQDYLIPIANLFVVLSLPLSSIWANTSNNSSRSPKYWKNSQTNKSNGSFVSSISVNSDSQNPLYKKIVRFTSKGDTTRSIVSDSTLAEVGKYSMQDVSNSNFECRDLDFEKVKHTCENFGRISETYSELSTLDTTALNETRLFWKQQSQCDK

[4] = target: Fusarium graminearum fungal pheromone GPCR (Fusarium graminearum)
[5] = target: T4, Lodderomyces elongisporous fungal pheromone GPCR (Lodderomyces elongisporous)
T4 sequence: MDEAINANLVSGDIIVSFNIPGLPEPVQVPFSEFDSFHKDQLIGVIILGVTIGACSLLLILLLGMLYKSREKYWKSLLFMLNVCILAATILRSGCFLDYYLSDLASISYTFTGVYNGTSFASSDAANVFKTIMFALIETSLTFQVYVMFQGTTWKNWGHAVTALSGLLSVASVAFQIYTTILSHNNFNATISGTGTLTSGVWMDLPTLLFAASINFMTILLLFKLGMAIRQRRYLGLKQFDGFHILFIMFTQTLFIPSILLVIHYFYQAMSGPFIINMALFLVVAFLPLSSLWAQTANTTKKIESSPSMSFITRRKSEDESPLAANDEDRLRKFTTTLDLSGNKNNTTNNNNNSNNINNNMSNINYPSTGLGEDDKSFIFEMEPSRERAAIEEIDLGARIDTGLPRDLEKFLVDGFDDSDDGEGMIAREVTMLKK

[6] = target: Magnaporthe oryzea fungal pheromone GPCR (Magnaporthe oryzea)
[7] = target: Paracoccidioides brasiliensis fungal pheromone GPCR (Paracoccidioides brasiliensis)
[8] = target: T5, Saccharomyces cerevisiae Ste2 pheromone receptor, wild type (Saccharomyces cerevisiae) (UniProt D6VTK4)
T5 sequence: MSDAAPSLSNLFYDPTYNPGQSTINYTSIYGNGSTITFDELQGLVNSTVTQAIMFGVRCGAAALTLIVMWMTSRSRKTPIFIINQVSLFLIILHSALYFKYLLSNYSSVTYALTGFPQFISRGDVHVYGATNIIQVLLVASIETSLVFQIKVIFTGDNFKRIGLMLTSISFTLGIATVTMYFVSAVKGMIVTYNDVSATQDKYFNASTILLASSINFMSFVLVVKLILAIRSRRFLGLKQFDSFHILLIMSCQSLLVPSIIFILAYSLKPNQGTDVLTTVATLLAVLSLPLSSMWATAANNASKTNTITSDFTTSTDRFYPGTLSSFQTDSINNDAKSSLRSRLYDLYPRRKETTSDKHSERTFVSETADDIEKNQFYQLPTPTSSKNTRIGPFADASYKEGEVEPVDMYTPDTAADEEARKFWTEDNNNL

Botrytis cinerea mating peptide pheromone …
EC50 (fluorescent reporter) [1]: < 1 nM

Candida albicans mating peptide pheromone …
EC50 (biosensor strain, fluorescence) [2]: 4 nM
EC50 (fluorescent reporter) [2]: 51 nM

Candida glabrata mating peptide pheromone …
EC50 (biosensor strain, fluorescence) [3]: 3600 nM

Fusarium graminearum mating peptide pheromone […]
EC50 (fluorescent reporter) [4]: 230 nM

Lodderomyces elongisporous mating peptide pheromone …
EC50 (biosensor strain, fluorescence) [5]: 51 nM

Magnaporthe oryzea mating peptide pheromone […]
EC50 (fluorescent reporter) [6]: 5000 nM

Paracoccidioides brasiliensis mating peptide […]
EC50 (biosensor strain, fluorescence) [7]: 34 nM
EC50 (fluorescent reporter) [7]: 9 nM

S. cerevisiae α-Factor, wild type, … (peptide)
EC50 (biosensor strain, fluorescence) [8]: 190 nM
